Reference: PMC7305185, “Non-cooperative 4E-BP2 folding with exchange between eIF4E-binding and binding-incompatible states tunes cap-dependent translation inhibition” (Nature Communications, 2020)

Biological target: T1, eukaryotic translation initiation factor 4E (eIF4E) (UniProt P06730 1-217)
T1 construct: eukaryotic translation initiation factor 4E; Expressed from a pET SUMO vector; The SUMO tag was cleaved with Ulp1 and removed on Ni-NTA; source: E. coli BL21-CodonPlus (DE3)-RIPL, purified (Ni-NTA, S75 gel filtration)
T1 sequence (P06730 whole entry): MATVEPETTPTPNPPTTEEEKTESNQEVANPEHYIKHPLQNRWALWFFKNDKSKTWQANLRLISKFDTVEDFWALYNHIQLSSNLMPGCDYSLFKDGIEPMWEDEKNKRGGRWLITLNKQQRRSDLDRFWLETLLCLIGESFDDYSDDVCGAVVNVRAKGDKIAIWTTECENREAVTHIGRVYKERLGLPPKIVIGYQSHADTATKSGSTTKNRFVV
Assay: ITC; MicroCal ITC200; data collection as detailed in ref. 11; KD as mean and standard deviation of repeat samples (n = 3 for 5p-4E-BP2, n = 2 or 1 for the other variants)
Settings: both partners purified

Kd: 15 µM
B1: five-phospho 4E-BP2 (pT37/pT46/pS65/pT70/pS83) (natural protein, UniProt Q13542 1-120, looked up)
chain: MSSSAGSGHQPSQSRAIPTRTVAISDAAQLPHDYCTTPGGTLFSTTPGGTRIIYDRKFLLDRRNSPMAQTPPCHLPNIPGVTSPGTLIEDSKVEVNNLNNLNNHDRKHAVGDDAQFEMDI
modifications: phosphothreonine at 37, 46 and 70; phosphoserine at 65 and 83
notes: also called 5p-4E-BP2; WT 5p-4E-BP2; source: E. coli BL21-CodonPlus (DE3)-RIPL, purified (Ni-NTA, S75 gel filtration); phosphorylated with Erk2, purified again by gel filtration
